Reference: patent US20180271975A1 (MODERNATX, published 2018)

Biological target: T1, hCMV glycoprotein H (gH) (human cytomegalovirus (Human …, UniProt Q6SW67 24-742))
T1 construct: also called envelope glycoprotein H
T1 sequence: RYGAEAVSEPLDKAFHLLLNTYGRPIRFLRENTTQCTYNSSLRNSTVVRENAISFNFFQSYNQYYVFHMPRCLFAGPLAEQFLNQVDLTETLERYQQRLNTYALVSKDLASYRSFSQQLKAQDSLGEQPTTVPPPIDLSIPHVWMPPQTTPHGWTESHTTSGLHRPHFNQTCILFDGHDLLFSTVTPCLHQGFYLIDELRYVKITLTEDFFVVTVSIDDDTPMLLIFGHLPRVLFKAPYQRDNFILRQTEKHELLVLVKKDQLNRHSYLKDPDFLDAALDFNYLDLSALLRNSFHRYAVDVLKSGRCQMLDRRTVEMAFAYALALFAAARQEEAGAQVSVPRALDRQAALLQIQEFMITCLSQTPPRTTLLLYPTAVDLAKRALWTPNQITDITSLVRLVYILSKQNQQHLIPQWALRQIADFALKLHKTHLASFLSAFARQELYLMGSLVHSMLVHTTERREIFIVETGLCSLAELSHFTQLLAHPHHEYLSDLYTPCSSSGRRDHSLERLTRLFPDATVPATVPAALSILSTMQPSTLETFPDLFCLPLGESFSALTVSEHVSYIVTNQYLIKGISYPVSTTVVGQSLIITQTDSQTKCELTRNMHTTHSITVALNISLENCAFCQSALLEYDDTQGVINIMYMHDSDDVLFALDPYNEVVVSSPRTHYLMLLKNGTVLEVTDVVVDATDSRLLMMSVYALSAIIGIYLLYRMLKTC
Experiment: co-expression in HeLa cells, surface gH read by FACS with 3G16

B1: hCMV glycoprotein L (gL) (other)
chain: AAVSVAPTAAEKVPAECPELTRRCLLGEVFEGDKYESWLRPLVNVTGRDGPLSQLIRYRPVTPEAANSVLLDEAFLDTLALLYNNPDQLRALLTLLSSDTAPRWMTVMRGYSECGDGSPAVYTCVDDLCRGYDLTRLSYGRSIFTEHVLGFELVPPSLFNVVVAIRNEATRTNRAVRLPVSTAAAPEGITLFYGLYNAVKEFCLRHQLDPPLLRHLDKYYAGLPPELKQTRVNLPAHSRYGPQAVDAR
B1: binds.
